Kd and EC50 data for 3 molecules are collected here from PMC10157364 (2023).

A word on the Kd: it is a measure of binding affinity in units of concentration. A word on the EC50: it is the concentration needed to bring the measured effect to its halfway point.

Experiment [1] addresses T1, human MIF treated with 0.2% Proclin300 (oxMIF surrogate) (human, UniProt P14174 1-115, treated with 0.2% Proclin300 to transform MIF into an oxMIF surrogate).
T1 chain: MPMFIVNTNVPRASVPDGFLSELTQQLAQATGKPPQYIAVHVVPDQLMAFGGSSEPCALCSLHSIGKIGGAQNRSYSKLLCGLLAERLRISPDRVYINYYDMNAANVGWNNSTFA
Put plainly: SPR. For orientation: Surface plasmon resonance follows binding to a sensor surface in real time, without labels.

The target in experiment [2] is mouse MIF treated with 0.2% Proclin300 (oxMIF surrogate) (mouse, UniProt P34884 1-115, treated with 0.2% Proclin300 to transform MIF into an oxMIF surrogate). The experiment can be described thus: ELISA. (ELISA stands for enzyme-linked immunosorbent assay.)
For experiment [3], the target named is T1, human MIF treated with 0.2% Proclin300 …. Put plainly: ELISA.

B1: ON103 (antibody, V domains shown)
VH: EVQLQESGGGLVQPGGSLRLSCAASGFTFSIYSMNWVRQAPGKGLEWVSSIGSSGGTTYYADSVKGRFTISRDNSKNTLYLQMNSLRAEDTAVYYCAGSQYLYGMDVWGQGTTVTVSS
VL: DIQMTQSPSSLSASVGDRVTITCRSSQRILTYLNWYQQKPGKAPKLLIYVGSHSQSGVPSRFRGSGSETDFTLTISGLQSEDSATYYCQQSFFTPLTFGGGTKVEIK
Regarding B1, the Kd in experiment [1] was 3.7 nM. For the same molecule, the EC50 is 4.6 nM in experiment [2] and 0.6 nM in experiment [3].

B2: ON203 (antibody, V domains shown)
VH: EVQLQESGGGLVQPGGSLRLSCAASGFTFSIYSMNWVRQAPGKGLEWVSSIGSSGGTTYYADSVKGRFTISRDNSKNTLYLQMNSLRAEDTAVYYCAGSQYLYGMDVWGQGTTVTVSS
VL: DIQMTQSPSSLSASVGDRVTITCRSSQRIMTYLNWYQQKPGKAPKLLIYVGSHSQSGVPSRFRGSGSETDFTLTISGLQPEDSATYYCQQSFFTPLTFGGGTKVEIK
Molecule B2 yielded a Kd in experiment [1] of 6.1 nM. Moreover, the values for the EC50 in experiment [2] and in experiment [3] were 5.2 nM and 0.7 nM, respectively.

B3: C0008 (antibody, V domains shown)
VH: EVQLLESGGGLVQPGGSLRLSCAASGFTFSIYSMNWVRQAPGKGLEWVSSIGSSGGTTYYADSVKGRFTISRDNSKNTLYLQMNSLRAEDTAVYYCAGSQWLYGMDVWGQGTTVTVSS
VL: DIQMTQSPSSLSASVGDRVTITCRSSQRIMTYLNWYQQKPGKAPKLLIFVASHSQSGVPSRFRGSGSETDFTLTISGLQPEDSATYYCQQSFWTPLTFGGGTKVEIK
B3 returned a Kd in experiment [1] of 3.5 nM. The EC50 in experiment [2] worked out at 3.1 nM; in experiment [3], 0.6 nM.
